Data published in paper PMC3973293, “A tRNA splicing operon: Archease endows RtcB with dual GTP/ATP cofactor specificity and accelerates RNA ligation” (Nucleic Acids Research, 2014).

Legend:
[1] = biological target: T1, Native Pyrococcus horikoshii RtcB (Pyrococcus horikoshii) (UniProt O59245)
T1 sequence: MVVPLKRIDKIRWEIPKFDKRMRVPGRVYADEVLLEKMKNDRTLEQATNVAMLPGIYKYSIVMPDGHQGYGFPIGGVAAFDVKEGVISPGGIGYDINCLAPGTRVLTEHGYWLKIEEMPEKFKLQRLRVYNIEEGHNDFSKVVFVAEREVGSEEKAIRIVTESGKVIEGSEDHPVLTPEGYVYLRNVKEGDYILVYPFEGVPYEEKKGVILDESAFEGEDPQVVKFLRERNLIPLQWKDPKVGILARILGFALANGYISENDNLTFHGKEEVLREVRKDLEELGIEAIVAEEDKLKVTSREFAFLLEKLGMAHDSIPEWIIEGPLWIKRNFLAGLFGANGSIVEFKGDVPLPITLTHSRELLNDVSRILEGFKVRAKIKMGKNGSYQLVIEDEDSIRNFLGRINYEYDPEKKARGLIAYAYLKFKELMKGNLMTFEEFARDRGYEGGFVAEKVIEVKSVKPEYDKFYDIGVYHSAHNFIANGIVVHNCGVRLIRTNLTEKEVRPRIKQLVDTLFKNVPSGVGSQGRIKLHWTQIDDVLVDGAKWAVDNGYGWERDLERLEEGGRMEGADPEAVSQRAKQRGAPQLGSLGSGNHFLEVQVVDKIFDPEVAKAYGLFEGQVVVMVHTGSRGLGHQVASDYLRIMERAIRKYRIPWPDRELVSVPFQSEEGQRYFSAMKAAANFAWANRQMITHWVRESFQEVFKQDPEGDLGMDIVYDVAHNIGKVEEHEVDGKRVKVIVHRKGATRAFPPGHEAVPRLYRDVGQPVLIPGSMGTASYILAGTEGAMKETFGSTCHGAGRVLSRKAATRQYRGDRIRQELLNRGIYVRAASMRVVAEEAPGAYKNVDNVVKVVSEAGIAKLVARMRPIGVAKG

[2] = substrate: Nc1nc2c(ncn2[C@@H]2O[C@H](COP(=O)(O)OP(=O)(O)OP(=O)(O)O)[C@@H](O)[C@H]2O)c(=O)[nH]1; test: single-turnover RNA ligation, FAM-RNA gel assay; format: biochemical, Pyrococcus horikoshii; conditions: apparent Km, RtcB 5 uM, MnCl2 0.25 mM, NaCl 300 mM, Bis-Tris pH 7.0, 70 °C, 10-nt RNA substrates 1.0 uM each, varied: cofactor
[3] = substrate: Nc1nc2c(ncn2[C@H]2C[C@H](O)[C@@H](COP(=O)(O)OP(=O)(O)OP(=O)(O)O)O2)c(=O)[nH]1; test: single-turnover RNA ligation, FAM-RNA gel assay; format: biochemical, Pyrococcus horikoshii; conditions: apparent Km, Archease 100 nM, RtcB 5 uM, MnCl2 0.25 mM, NaCl 300 mM, Bis-Tris pH 7.0, 70 °C, 10-nt RNA substrates 1.0 uM each, varied: cofactor
[4] = substrate: Nc1ncnc2c1ncn2[C@@H]1O[C@H](COP(=O)(O)OP(=O)(O)OP(=O)(O)O)[C@@H](O)[C@H]1O; test: single-turnover RNA ligation, FAM-RNA gel assay; format: biochemical, Pyrococcus horikoshii; conditions: apparent Km, Archease 800 nM, RtcB 5 uM, MnCl2 0.25 mM, NaCl 300 mM, Bis-Tris pH 7.0, 70 °C, 10-nt RNA substrates 1.0 uM each, varied: cofactor
[5] = substrate: O=P(O)(O)OP(=O)(O)OP(=O)(O)OC[C@H]1O[C@@H](n2cnc3c(O)ncnc32)[C@H](O)[C@@H]1O; test: single-turnover RNA ligation, FAM-RNA gel assay; format: biochemical, Pyrococcus horikoshii; conditions: apparent Km, Archease 100 nM, RtcB 5 uM, MnCl2 0.25 mM, NaCl 300 mM, Bis-Tris pH 7.0, 70 °C, 10-nt RNA substrates 1.0 uM each, varied: cofactor
[6] = substrate: Nc1ncnc2c1ncn2[C@@H]1O[C@H](COP(=O)(O)OP(=O)(O)OP(=O)(O)O)[C@@H](O)[C@H]1O; test: single-turnover RNA ligation, FAM-RNA gel assay; format: biochemical, Pyrococcus horikoshii; conditions: apparent Km, Archease 800 nM, RtcB 5 uM, MnCl2 0.25 mM, NaCl 300 mM, Bis-Tris pH 7.0, 70 °C, 10-nt RNA substrates 1.0 uM each, varied: cofactor; remark: listed apart in the source
Description: single-turnover RNA ligation, FAM-RNA gel assay on RtcB·Archease | the ATP KM* value for K480A RtcB was nearly identical to the ATP KM* value

B1: Pyrococcus horikoshii Archease (natural protein)
chain: MLKKWEHYEHTADIGIRGYGDSLEEAFEAVAIALFDVMVNVNKVEKKEVREIEVEAEDLEALLYSFLEELLVIHDIEGLVFRDFEVKIERVNGKYRLRAKAYGEKLDLKKHEPKEEVKAITYHDMKIERLPNGKWMAQLVPDI
Binder B1 has an RNA ligation product formed by 5 μM RtcB with Archease titrated in (activation levels off at 100 nM Archease; 92 nM product without Archease), 70°C, 30 min [1] of 316 nM.

B2: P. horikoshii RtcB (Pyrococcus horikoshii OT3) (protein)
chain 1: MVVPLKRIDKIRWEIPKFDKRMRVPGRVYADEVLLEKMKNDRTLEQATNVAMLPGIYKYSIVMPDGHQGYGFPIGGVAAFDVKEGVISPGGIGYDIN
chain 2: CGVRLIRTNLTEKEVRPRIKQLVDTLFKNVPSGVGSQGRIKLHWTQIDDVLVDGAKWAVDNGYGWERDLERLEEGGRMEGADPEAVSQRAKQRGAPQLGSLGSGNHFLEVQVVDKIFDPEVAKAYGLFEGQVVVMVHTGSRGLGHQVASDYLRIMERAIRKYRIPWPDRELVSVPFQSEEGQRYFSAMKAAANFAWANRQMITHWVRESFQEVFKQDPEGDLGMDIVYDVAHNIGKVEEHEVDGKRVKVIVHRKGATRAFPPGHEAVPRLYRDVGQPVLIPGSMGTASYILAGTEGAMKETFGSTCHGAGRVLSRKAATRQYRGDRIRQELLNRGIYVRAASMRVVAEEAPGAYKNVDNVVKVVSEAGIAKLVARMRPIGVAKG
notes: intein-free mature ligase
Binder B2 has a Km [2] of 2.4 ± 0.2 µM.

B3: RtcB·Archease (Pyrococcus horikoshii OT3) (protein)
chain 1: MVVPLKRIDKIRWEIPKFDKRMRVPGRVYADEVLLEKMKNDRTLEQATNVAMLPGIYKYSIVMPDGHQGYGFPIGGVAAFDVKEGVISPGGIGYDIN
chain 2: CGVRLIRTNLTEKEVRPRIKQLVDTLFKNVPSGVGSQGRIKLHWTQIDDVLVDGAKWAVDNGYGWERDLERLEEGGRMEGADPEAVSQRAKQRGAPQLGSLGSGNHFLEVQVVDKIFDPEVAKAYGLFEGQVVVMVHTGSRGLGHQVASDYLRIMERAIRKYRIPWPDRELVSVPFQSEEGQRYFSAMKAAANFAWANRQMITHWVRESFQEVFKQDPEGDLGMDIVYDVAHNIGKVEEHEVDGKRVKVIVHRKGATRAFPPGHEAVPRLYRDVGQPVLIPGSMGTASYILAGTEGAMKETFGSTCHGAGRVLSRKAATRQYRGDRIRQELLNRGIYVRAASMRVVAEEAPGAYKNVDNVVKVVSEAGIAKLVARMRPIGVAKG
notes: Archease untagged as described, codon-optimised, Leu inserted after ATG, E. coli BL21, 16 kDa, mostly monomer; with Protein archease
With B3 the Km ([2]; Archease 100 nM) was 1.5 ± 0.3 µM, the Km [3] was 1.8 ± 0.1 µM and the Km [4] was 3.4 ± 1.1 µM. The Km [5] was 1.9 ± 0.4 µM.

B4: RtcB·Archease (Pyrococcus horikoshii OT3; K870A) (protein)
chain 1: MVVPLKRIDKIRWEIPKFDKRMRVPGRVYADEVLLEKMKNDRTLEQATNVAMLPGIYKYSIVMPDGHQGYGFPIGGVAAFDVKEGVISPGGIGYDIN
chain 2: CGVRLIRTNLTEKEVRPRIKQLVDTLFKNVPSGVGSQGRIKLHWTQIDDVLVDGAKWAVDNGYGWERDLERLEEGGRMEGADPEAVSQRAKQRGAPQLGSLGSGNHFLEVQVVDKIFDPEVAKAYGLFEGQVVVMVHTGSRGLGHQVASDYLRIMERAIRKYRIPWPDRELVSVPFQSEEGQRYFSAMKAAANFAWANRQMITHWVRESFQEVFKQDPEGDLGMDIVYDVAHNIGKVEEHEVDGKRVKVIVHRKGATRAFPPGHEAVPRLYRDVGQPVLIPGSMGTASYILAGTEGAMKETFGSTCHGAGRVLSRKAATRQYRGDRIRQELLNRGIYVRAASMRVVAEEAPGAYKNVDNVVKVVSEAGIAKLVARMRPIGVAAG
notes: as for B3
In the case of B4, the Km [6] is reported as 3.0 ± 1.0 µM.
